Measured values taken from patent US20250332297A1, “DLL3-SPECIFIC BINDING CONSTRUCTS AND THEIR USE IN RADIOTHERAPY” (MOLECULAR PARTNERS AG, priority 2024, published 2025).

Legend:
[1] = biological target: T1, Human DLL3-NTD (truncated human DLL3, N-Terminal Domain, residues 27-189, C-terminal 6xHis and Avi-tag) (human, UniProt Q9NYJ7 27-189); assay: SPR (ProteOn), biotinylated human DLL3-NTD on chip, DARPin conjugate as analyte, 1:1 Langmuir fit
T1 construct: also called hDLL3-NTD; human NTD; not shown: C-terminal 6xHis and Avi-tag
T1 sequence: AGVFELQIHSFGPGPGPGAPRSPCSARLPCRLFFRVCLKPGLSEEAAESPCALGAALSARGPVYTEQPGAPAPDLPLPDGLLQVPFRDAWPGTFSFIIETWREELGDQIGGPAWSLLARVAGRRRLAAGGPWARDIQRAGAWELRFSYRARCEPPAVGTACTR
Procedure: (§1) The data were generated using BioRad ProteOn instrument in SPR running buffer (PBS, pH 7.4 containing 0.005% Tween 20©). […] The chip was coated with biotinylated target to reach a signal intensity of 1516 RU (human ECD), 257 RU (human NTD), 1500 RU (cyno ECD) and 228 RU (dog NTD). […] Each injection was followed by a regeneration step with 16 mM H₃PO₄ for 18 s. […] The obtained SPR traces were used to determine on-rate and off-rate interaction parameters.

human serum albumin = biological target: T2, human serum albumin (human, UniProt P02768 25-609); assay: SPR (ProteOn), HSA on chip, DARPin conjugate as analyte, 1:1 Langmuir fit
T2 construct: also called HSA
Procedure: (§2) SPR multi-trace analyses were performed similarly as described in previous Examples.
(§3) All analytes (3-fold dilution ranging from 600-7.41 nM) were injected in succession for 240 s and dissociation was recorded for 600 s using a constant flow of 25 μl/min (HSA) or 100 μl/min (MSA) (25 μl/min).

[2] = biological target: T3, Dog DLL3-NTD (truncated dog DLL3, N-Terminal Domain, residues 27-189, C-terminal 6xHis and Avi-tag) (dog, UniProt A0A8I3MXZ5 27-188, biotinylated at the Avi-tag); assay: SPR (ProteOn), biotinylated dog DLL3-NTD on chip, DARPin conjugate as analyte, 1:1 Langmuir fit
T3 construct: also called dog NTD; not shown: C-terminal 6xHis and Avi-tag
T3 sequence: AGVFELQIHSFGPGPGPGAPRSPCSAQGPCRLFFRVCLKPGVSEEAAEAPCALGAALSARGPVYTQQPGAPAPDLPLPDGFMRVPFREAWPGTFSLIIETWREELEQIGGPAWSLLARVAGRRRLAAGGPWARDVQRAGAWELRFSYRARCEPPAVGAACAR
Procedure: as §1

[3] = biological target: T4, Cyno DLL3-ECD (extracellular domain of cynomolgus macaque DLL3, residues 27 to 466, Avi-tag, 3C site, Fc knob … (cynomolgus macaque, UniProt A0A2K5WSR1 27-464, biotinylated at the Avi-tag (Example 11))); assay: SPR (ProteOn), biotinylated cyno DLL3-ECD on chip, DARPin conjugate as analyte, 1:1 Langmuir fit
T4 construct: range 27-466; also called cyno ECD; cynomolgus monkey DLL3; not shown: Avi-tag, 3C protease recognition site and Fc knob into hole
T4 sequence: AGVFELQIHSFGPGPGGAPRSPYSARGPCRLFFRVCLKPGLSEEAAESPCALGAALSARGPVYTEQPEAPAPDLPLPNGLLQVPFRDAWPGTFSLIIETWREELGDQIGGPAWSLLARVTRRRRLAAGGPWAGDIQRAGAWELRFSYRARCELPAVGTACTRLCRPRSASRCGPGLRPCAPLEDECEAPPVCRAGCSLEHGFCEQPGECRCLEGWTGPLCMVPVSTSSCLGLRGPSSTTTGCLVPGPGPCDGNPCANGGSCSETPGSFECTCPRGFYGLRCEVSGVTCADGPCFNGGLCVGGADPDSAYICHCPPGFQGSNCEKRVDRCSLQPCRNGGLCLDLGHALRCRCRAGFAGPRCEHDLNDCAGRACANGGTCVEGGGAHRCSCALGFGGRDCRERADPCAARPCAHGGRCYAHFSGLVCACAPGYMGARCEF
Procedure: as §1

mouse serum albumin = biological target: T5, mouse serum albumin (mouse, UniProt P07724 25-608); assay: SPR (ProteOn), MSA on chip, DARPin conjugate as analyte, 1:1 Langmuir fit
T5 construct: also called MSA
T5 sequence (P07724 25-608 limits assumed): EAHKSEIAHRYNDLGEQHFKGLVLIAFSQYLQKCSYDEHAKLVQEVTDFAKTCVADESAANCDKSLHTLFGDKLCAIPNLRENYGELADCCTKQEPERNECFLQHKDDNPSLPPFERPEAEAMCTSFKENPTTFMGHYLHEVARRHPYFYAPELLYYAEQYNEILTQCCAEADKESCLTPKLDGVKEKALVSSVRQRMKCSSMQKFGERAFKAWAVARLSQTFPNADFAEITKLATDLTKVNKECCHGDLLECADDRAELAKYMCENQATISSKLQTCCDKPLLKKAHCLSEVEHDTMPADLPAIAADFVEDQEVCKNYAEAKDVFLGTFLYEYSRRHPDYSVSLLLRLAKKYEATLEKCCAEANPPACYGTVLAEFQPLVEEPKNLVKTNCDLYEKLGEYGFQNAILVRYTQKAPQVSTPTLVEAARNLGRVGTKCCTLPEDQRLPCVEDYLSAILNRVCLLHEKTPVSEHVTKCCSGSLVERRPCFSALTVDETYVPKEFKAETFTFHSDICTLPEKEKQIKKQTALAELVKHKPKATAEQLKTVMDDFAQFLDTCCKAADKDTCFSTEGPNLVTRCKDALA
Procedure: as §2, §3

[4] = biological target: T6, Human DLL3-ECD (recombinant extracellular domain of human DLL3, Examples 11, 17 and 19) (human, UniProt Q9NYJ7 27-466, biotinylated at the Avi-tag where immobilised (Examples 11 and 19)); assay: SPR (ProteOn), biotinylated human DLL3-ECD on chip, DARPin conjugate as analyte, 1:1 Langmuir fit (same values as Table 14)
T6 construct: also called hDLL3-ECD; human ECD; not shown: Avi-tag and Fc knob into hole (order depends on the format)
T6 sequence: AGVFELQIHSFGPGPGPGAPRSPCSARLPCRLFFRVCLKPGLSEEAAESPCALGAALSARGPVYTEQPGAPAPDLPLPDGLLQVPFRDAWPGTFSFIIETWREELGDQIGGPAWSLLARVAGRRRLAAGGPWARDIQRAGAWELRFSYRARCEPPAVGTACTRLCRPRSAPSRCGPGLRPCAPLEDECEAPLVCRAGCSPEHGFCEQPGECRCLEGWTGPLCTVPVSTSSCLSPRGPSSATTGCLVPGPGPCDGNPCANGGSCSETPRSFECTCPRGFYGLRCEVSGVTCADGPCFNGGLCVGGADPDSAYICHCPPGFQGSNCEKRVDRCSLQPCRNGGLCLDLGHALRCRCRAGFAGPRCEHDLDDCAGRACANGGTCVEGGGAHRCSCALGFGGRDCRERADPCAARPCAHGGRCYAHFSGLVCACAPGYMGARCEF
Procedure: as §1

[5] = biological target: T6, Human DLL3-ECD (recombinant …); assay: SPR (ProteOn), biotinylated human DLL3-ECD on chip, DARPin conjugate as analyte, 1:1 Langmuir fit
Procedure: as §1

Kd [1]: 0.394 nM | koff [1]: 1.99e-05 s⁻¹ | kon [1]: 50400 M⁻¹ s⁻¹ | Kd (human serum albumin): 98.2 nM | koff (human serum albumin): 0.021 s⁻¹ | kon (human serum albumin): 213000 M⁻¹ s⁻¹ | Kd [2]: 1.46 nM | koff [2]: 4.86e-05 s⁻¹ | kon [2]: 33400 M⁻¹ s⁻¹ | Kd [3]: 34.6 nM | koff [3]: 0.00125 s⁻¹ | kon [3]: 36000 M⁻¹ s⁻¹ | Kd (mouse serum albumin): 274 nM | koff (mouse serum albumin): 0.0425 s⁻¹ | kon (mouse serum albumin): 155000 M⁻¹ s⁻¹ | Kd [4]: 0.243 nM | koff [4]: 1.64e-05 s⁻¹ | kon [4]: 67400 M⁻¹ s⁻¹ | Kd [5]: 0.243 nM | koff [5]: 1.64e-05 s⁻¹ | kon [5]: 67400 M⁻¹ s⁻¹
B1: MAM279-DOTAM (GS-MAM279-tag, SEQ ID NO: 15, conjugated to the chelator DOTAM) (designed binder)
chain: GSDLGKKLLEAARAGQDDEVRELLKAGADVNAKDYFSHTPLHLAARNGHLKIVEVLLKAGADVNAKDFAGKTPLHLAADAGHLEIVEVLLKAGADVNAQDIFGKTPADIAADAGHEDIAEVLQKAAGSPTPTPTTPTPTPTTPTPTPTGSDLGKKLLAAAAQGQDDEVRELLKAGANVNAKDLFGYTPLHLAAWRGHLEIVEVLLKAGADVNAKDAAGETPLHLAAWFGHLEIVEVLLKAGADVNAQDLQGKTPADLAAKEGHEDIAEVLQKAAGSGSC
notes: also called DOTAM-conjugated MAM279; MAM279 conjugate
